This is an account of results in patent US20100028924A1, “Method Of Diagnosing Pon1-Hdl Associated Lipid Disorders” (Rappaport Family Institute Research in the Medical Sciences, priority 2006, published 2010).

As usually defined, the Kd is the constant that tells how readily two partners part at equilibrium. High values mean weaker binding, low ones tighter binding. In general, koff refers to the first-order rate constant of dissociation. Lower therefore signals slow dissociation. The kon is the rate constant with which the complex forms. A high value points to fast association.

Test [1] addresses rHDL-apoA-I (reconstituted discoidal HDL particles carrying apolipoprotein A-I). Briefly: SPR, rHDL-apoA-I immobilised; reference Δ20-rePON1-192Q. In general terms: In SPR one partner is held on a chip, and binding of the other changes the refractive index at the surface.
Test [2] has the same target. Briefly: SPR (BIAcore 3000), biotinylated rHDL-apoA-I on streptavidin chip, PON1 injected, 25° C.

Chain of Δ20-rePON1-192R (P27170 other isoform, or with tags, fused parts or gaps mutant): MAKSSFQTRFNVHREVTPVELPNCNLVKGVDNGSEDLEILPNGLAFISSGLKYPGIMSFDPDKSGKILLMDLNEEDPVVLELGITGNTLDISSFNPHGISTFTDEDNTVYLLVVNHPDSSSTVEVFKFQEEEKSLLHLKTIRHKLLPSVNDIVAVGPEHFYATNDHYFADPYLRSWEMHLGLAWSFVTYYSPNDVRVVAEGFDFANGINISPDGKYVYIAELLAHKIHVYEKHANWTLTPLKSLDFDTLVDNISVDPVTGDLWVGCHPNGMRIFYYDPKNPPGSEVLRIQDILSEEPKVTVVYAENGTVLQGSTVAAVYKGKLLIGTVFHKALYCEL
Chain of Δ20-rePON1-192Q (P27170 other isoform, or with tags, fused parts or gaps mutant): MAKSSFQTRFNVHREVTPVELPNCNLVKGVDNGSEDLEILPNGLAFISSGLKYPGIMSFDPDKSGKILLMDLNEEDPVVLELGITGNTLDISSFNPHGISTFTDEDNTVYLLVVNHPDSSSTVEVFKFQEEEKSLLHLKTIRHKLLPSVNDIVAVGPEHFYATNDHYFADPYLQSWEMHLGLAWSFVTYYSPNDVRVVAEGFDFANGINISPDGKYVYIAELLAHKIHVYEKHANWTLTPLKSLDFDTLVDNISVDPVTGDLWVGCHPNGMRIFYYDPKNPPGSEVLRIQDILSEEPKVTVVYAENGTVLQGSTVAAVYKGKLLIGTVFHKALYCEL
Chain of wt Δ20-rePON1-192K (P27170 other isoform, or with tags, fused parts or gaps mutant): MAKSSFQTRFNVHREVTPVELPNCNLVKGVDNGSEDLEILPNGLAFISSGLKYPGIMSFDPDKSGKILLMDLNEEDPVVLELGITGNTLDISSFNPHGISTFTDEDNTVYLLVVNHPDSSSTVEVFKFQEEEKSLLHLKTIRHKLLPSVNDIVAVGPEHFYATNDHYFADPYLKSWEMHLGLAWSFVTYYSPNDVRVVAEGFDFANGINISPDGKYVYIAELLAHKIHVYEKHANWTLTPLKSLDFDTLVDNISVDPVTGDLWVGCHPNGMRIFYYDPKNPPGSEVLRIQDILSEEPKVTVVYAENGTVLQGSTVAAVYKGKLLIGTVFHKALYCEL

On to “wt Δ20-rePON1-192K (from UniProt P27170 21-355) (enzyme)”, for which the fold higher HDL binding affinity than the Q isozyme in test [1] is 3 fold. In test [2], the Kd came out at 100 nM, the koff was found to be 0.02 s⁻¹ and the on-rate (kon) was 200000 M⁻¹ s⁻¹.

In test [2], “Δ20-rePON1-192Q (from UniProt P27170 21-355) (enzyme)” returned a Kd of 300 nM, a koff of 0.042 s⁻¹ and a kon of 140000 M⁻¹ s⁻¹.

On to “Δ20-rePON1-192R (from UniProt P27170 21-355) (enzyme)”, for which, in test [1], the fold higher HDL affinity than the Q isozyme was found to be 3 fold. Also, in test [2], the Kd was 110 nM, the koff is 0.029 s⁻¹ and the kon came out at 260000 M⁻¹ s⁻¹.
